This is an account of results in the supplement of paper PMC5998384.

The subject of data set [1] is HeLa Kyoto. Briefly: solubility in G1/S (NP-40 vs SDS abundance) (log2 ratio); higher = more soluble. As to conditions: cell cycle stage: G1/S.
The subject of data set [2] is HeLa Kyoto. Briefly: melting temperature (median over replicates), in situ; higher = more thermally stable.
Data set [3] relates to HeLa Kyoto. Briefly: solubility change mitosis vs G1/S (difference of NP-40 vs SDS log2 ratios) (log2 ratio difference); higher = more soluble in mitosis.
Data set [4] relates to HeLa Kyoto. Put plainly: thermal stability score vs G1/S (z-score of summed log2 fold changes over temperatures); higher = more thermally stable than in G1/S.
The mark [5] stands for this setting: cell cycle stage: early G1 (4.5 h after nocodazole release).
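Throughout, for melting temperature (median over replicates), in situ: HeLa Kyoto cells synchronized by double thymidine or nocodazole block, proteins quantified by TMT10plex mass spectrometry, three independent biological replicates.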
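Throughout, for solubility change mitosis vs G1/S (difference of NP-40 vs SDS log2 ratios): synchronized HeLa Kyoto cells (double thymidine block for G1/S, nocodazole release for mitosis), protein amounts in NP-40 versus SDS lysates quantified by mass spectrometry, three biological replicates.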
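Throughout, for solubility in G1/S (NP-40 vs SDS abundance): HeLa Kyoto cells arrested at G1/S by double thymidine block, proteins quantified by TMT10plex mass spectrometry in mild NP-40 versus SDS extracts, three biological replicates.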
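Throughout, for thermal stability score vs G1/S (z-score of summed log2 fold changes over temperatures): synchronized HeLa Kyoto cells, proteins quantified by TMT10plex mass spectrometry, three biological replicates, mitosis taken 0.5 h after nocodazole release, G1/S directly after double thymidine block.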

For the sequence “MSATSVDQRPKGQGNKVSVQNGSIHQKDAVNDDDFEPYLSSQTNQSNSYPPMSDPYMPSYYAPSIGFPYSLGEAAWSTAGDQPMPYLTTYGQMSNGEHHYIPDGVFSQPGALGNTPPFLGQHGFNFFPGNADFSTWGTSGSQGQSTQSSAYSSSYGYPPSSLGRAITDGQAGFGNDTLSKVPGISSIEQGMTGLKIGGDLTAAVTKTVGTALSSSGMTSIATNSVPPVSSAAPKPTSWAAIARKPAKPQPKLKPKGNVGIGGSAVPPPPIKHNMNIGTWDEKGSVVKAPPTQPVLPPQTIIQQPQPLIQPPPLVQSQLPQQQPQPPQPQQQQGPQPQAQPHQVQPQQQQLQNRWVAPRNRGAGFNQNNGAGSENFGLGVVPVSASPSSVEVHPVLEKLKAINNYNPKDFDWNLKNGRVFIIKSYSEDDIHRSIKYSIWCSTEHGNKRLDAAYRSLNGKGPLYLLFSVNGSGHFCGVAEMKSVVDYNAYAGVWSQDKWKGKFEVKWIFVKDVPNNQLRHIRLENNDNKPVTNSRDTQEVPLEKAKQVLKIIATFKHTTSIFDDFAHYEKRQEEEEAMRRERNRNKQ [YTHDF3]”, in the data set with HeLa Kyoto [1], the “solubility in G1/S (log2)” value is 0.098. Further, the melting temperature in the data set with HeLa Kyoto [2] (cell cycle stage: G1/S) came to 52.4 °C; with HeLa Kyoto [2] (cell cycle stage: mitosis), 51.6 °C. Moreover, in the data set on HeLa Kyoto [3], the “solubility change mitosis (log2)” value was -0.0838. For the same sequence, the thermal stability score with HeLa Kyoto [4] (setting [5]) is -0.535; in the data set with HeLa Kyoto [4] (cell cycle stage: mitosis), -3.39.
In the case of “MSCESSMVLGYWDIRGLAHAIRLLLEFTDTSYEEKRYTCGEAPDYDRSQWLDVKFKLDLDFPNLPYLLDGKNKITQSNAILRYIARKHNMCGETEEEKIRVDIIENQVMDFRTQLIRLCYSSDHEKLKPQYLEELPGQLKQFSMFLGKFSWFAGEKLTFVDFLTYDILDQNRIFDPKCLDEFPNLKAFMCRFEALEKIAAYLQSDQFCKMPINNKMAQWGNKPVC [GSTM3]”, the “solubility in G1/S (log2)” value with HeLa Kyoto [1] was determined as 0.0979. For the same sequence, the melting temperature in the data set with HeLa Kyoto [2] (cell cycle stage: G1/S) came to 47.9 °C; in the data set with HeLa Kyoto [2] (cell cycle stage: mitosis) it was 48.3 °C. Further, in the data set on HeLa Kyoto [3], the “solubility change mitosis (log2)” value is -0.117. Also, the thermal stability score with HeLa Kyoto [4] (setting [5]) worked out at 1.24; in the data set on HeLa Kyoto [4] (cell cycle stage: mitosis) it was 3.37.
Regarding “MSDDAGDTLATGDKAEVTEMPNSDSLPEDAEVHCDSAAVSHEPTPADPRGEGHENAAVQGAGAAAIGPPVQPQDANALEPPLNGDVTEDTLAECIDSVSLEAEPRSEIPLQEQNYLAVDSPPSGGGWAGWGSWGKSLLSSASATVGHGLTAVKEKAGATLRIHGVNSGSSEGAQPNTENGVPEITDAATDQGPAESPPTSPSSASRGMLSAITNVVQNTGKSVLTGGLDALEFIGKKTMNVLAESDPGFKRTKTLMERTVSLSQMLREAKEKEKQRLAQQLTMERTAHYGMLFDEYQGLSHLEALEILSNESESKVQSFLASLDGEKLELLKNDLISIKDIFAAKELENEENQEEQGLEEKGEEFARMLTELLFELHVAATPDKLNKAMKRAHDWVEEDQTVVSVDVAKVSEEETKKEEKEEKSQDPQEDKKEEKKTKTIEEVYMSSIESLAEVTARCIEQLHKVAELILHGQEEEKPAQDQAKVLIKLTTAMCNEVASLSKKFTNSLTTVGSNKKAEVLNPMISSVLLEGCNSTTYIQDAFQLLLPVLQVSHIQTSCLKAQP [FAM114A1]”, the “solubility in G1/S (log2)” value with HeLa Kyoto [1] is 0.474. The melting temperature came to 52.9 °C with HeLa Kyoto [2] (cell cycle stage: G1/S) and 53.1 °C in the data set on HeLa Kyoto [2] (cell cycle stage: mitosis). In addition, the “solubility change mitosis (log2)” value in the data set with HeLa Kyoto [3] is -0.158. For the same sequence, the values for the thermal stability score in the data set on HeLa Kyoto [4] (setting [5]) and in the data set on HeLa Kyoto [4] (cell cycle stage: mitosis) were 0.444 and 0.327, respectively.
As to “MSDNQSWNSSGSEEDPETESGPPVERCGVLSKWTNYIHGWQDRWVVLKNNALSYYKSEDETEYGCRGSICLSKAVITPHDFDECRFDISVNDSVWYLRAQDPDHRQQWIDAIEQHKTESGYGSESSLRRHGSMVSLVSGASGYSATSTSSFKKGHSLREKLAEMETFRDILCRQVDTLQKYFDACADAVSKDELQRDKVVEDDEDDFPTTRSDGDFLHSTNGNKEKLFPHVTPKGINGIDFKGEAITFKATTAGILATLSHCIELMVKREDSWQKRLDKETEKKRRTEEAYKNAMTELKKKSHFGGPDYEEGPNSLINEEEFFDAVEAALDRQDKIEEQSQSEKVRLHWPTSLPSGDAFSSVGTHRFVQKPYSRSSSMSSIDLVSASDDVHRFSSQVEEMVQNHMTYSLQDVGGDANWQLVVEEGEMKVYRREVEENGIVLDPLKATHAVKGVTGHEVCNYFWNVDVRNDWETTIENFHVVETLADNAIIIYQTHKRVWPASQRDVLYLSVIRKIPALTENDPETWIVCNFSVDHDSAPLNNRCVRAKINVAMICQTLVSPPEGNQEISRDNILCKITYVANVNPGGWAPASVLRAVAKREYPKFLKRFTSYVQEKTAGKPILF [COL4A3BP]”, the “solubility in G1/S (log2)” value in the data set with HeLa Kyoto [1] came out at 0.0115. The results for the melting temperature in the data set with HeLa Kyoto [2] (cell cycle stage: G1/S) and in the data set on HeLa Kyoto [2] (cell cycle stage: mitosis) were 50.2 °C and 50.1 °C, respectively. For the same sequence, the “solubility change mitosis (log2)” value in the data set on HeLa Kyoto [3] was -0.167. For the same sequence, the thermal stability score with HeLa Kyoto [4] (setting [5]) was -0.469; in the data set on HeLa Kyoto [4] (cell cycle stage: mitosis), -0.153.
Take “MSDSGEQNYGERESRSASRSGSAHGSGKSARHTPARSRSKEDSRRSRSKSRSRSESRSRSRRSSRRHYTRSRSRSRSHRRSRSRSYSRDYRRRHSHSHSPMSTRRRHVGNRANPDPNCCLGVFGLSLYTTERDLREVFSKYGPIADVSIVYDQQSRRSRGFAFVYFENVDDAKEAKERANGMELDGRRIRVDFSITKRPHTPTPGIYMGRPTYGSSRRRDYYDRGYDRGYDDRDYYSRSYRGGGGGGGGWRAAQDRDQIYRRRSPSPYYSRGGYRSRSRSRSYSPRRY [TRA2B]”: the “solubility in G1/S (log2)” value with HeLa Kyoto [1] is -1.17. The melting temperature in the data set on HeLa Kyoto [2] (cell cycle stage: G1/S) is 49.9 °C; with HeLa Kyoto [2] (cell cycle stage: mitosis), 49.8 °C. The “solubility change mitosis (log2)” value in the data set on HeLa Kyoto [3] turned out to be 0.613. Further, the thermal stability score in the data set with HeLa Kyoto [4] (setting [5]) was -1.69; with HeLa Kyoto [4] (cell cycle stage: mitosis) it was -4.47.
As for “MSDSKCDSQFYSVQVADSTFTVLKRYQQLKPIGSGAQGIVCAAFDTVLGINVAVKKLSRPFQNQTHAKRAYRELVLLKCVNHKNIISLLNVFTPQKTLEEFQDVYLVMELMDANLCQVIHMELDHERMSYLLYQMLCGIKHLHSAGIIHRDLKPSNIVVKSDCTLKILDFGLARTACTNFMMTPYVVTRYYRAPEVILGMGYKENVDIWSVGCIMGELVKGCVIFQGTDHIDQWNKVIEQLGTPSAEFMKKLQPTVRNYVENRPKYPGIKFEELFPDWIFPSESERDKIKTSQARDLLSKMLVIDPDKRISVDEALRHPYITVWYDPAEAEAPPPQIYDAQLEEREHAIEEWKELIYKEVMDWEERSKNGVVKDQPSDAAVSSNATPSQSSSINDISSMSTEQTLASDTDSSLDASTGPLEGCR [MAPK9]”, the “solubility in G1/S (log2)” value in the data set on HeLa Kyoto [1] is -0.0645. Further, the melting temperature in the data set on HeLa Kyoto [2] (cell cycle stage: G1/S) came to 50.9 °C. For the same sequence, the “solubility change mitosis (log2)” value with HeLa Kyoto [3] was -0.147. Besides, the thermal stability score with HeLa Kyoto [4] (setting [5]) was -0.633; in the data set with HeLa Kyoto [4] (cell cycle stage: mitosis) it was -0.772.
As for “MSDSWVPNSASGQDPGGRRRAWAELLAGRVKREKYNPERAQKLKESAVRLLRSHQDLNALLLEVEGPLCKKLSLSKVIDCDSSEAYANHSSSFIGSALQDQASRLGVPVGILSAGMVASSVGQICTAPAETSHPVLLTVEQRKKLSSLLEFAQYLLAHSMFSRLSFCQELWKIQSSLLLEAVWHLHVQGIVSLQELLESHPDMHAVGSWLFRNLCCLCEQMEASCQHADVARAMLSDFVQMFVLRGFQKNSDLRRTVEPEKMPQVTVDVLQRMLIFALDALAAGVQEESSTHKIVRCWFGVFSGHTLGSVISTDPLKRFFSHTLTQILTHSPVLKASDAVQMQREWSFARTHPLLTSLYRRLFVMLSAEELVGHLQEVLETQEVHWQRVLSFVSALVVCFPEAQQLLEDWVARLMAQAFESCQLDSMVTAFLVVRQAALEGPSAFLSYADWFKASFGSTRGYHGCSKKALVFLFTFLSELVPFESPRYLQVHILHPPLVPGKYRSLLTDYISLAKTRLADLKVSIENMGLYEDLSSAGDITEPHSQALQDVEKAIMVFEHTGNIPVTVMEASIFRRPYYVSHFLPALLTPRVLPKVPDSRVAFIESLKRADKIPPSLYSTYCQACSAAEEKPEDAALGVRAEPNSAEEPLGQLTAALGELRASMTDPSQRDVISAQVAVISERLRAVLGHNEDDSSVEISKIQLSINTPRLEPREHMAVDLLLTSFCQNLMAASSVAPPERQGPWAALFVRTMCGRVLPAVLTRLCQLLRHQGPSLSAPHVLGLAALAVHLGESRSALPEVDVGPPAPGAGLPVPALFDSLLTCRTRDSLFFCLKFCTAAISYSLCKFSSQSRDTLCSCLSPGLIKKFQFLMFRLFSEARQPLSEEDVASLSWRPLHLPSADWQRAALSLWTHRTFREVLKEEDVHLTYQDWLHLELEIQPEADALSDTERQDFHQWAIHEHFLPESSASGGCDGDLQAACTILVNALMDFHQSSRSYDHSENSDLVFGGRTGNEDIISRLQEMVADLELQQDLIVPLGHTPSQEHFLFEIFRRRLQALTSGWSVAASLQRQRELLMYKRILLRLPSSVLCGSSFQAEQPITARCEQFFHLVNSEMRNFCSHGGALTQDITAHFFRGLLNACLRSRDPSLMVDFILAKCQTKCPLILTSALVWWPSLEPVLLCRWRRHCQSPLPRELQKLQEGRQFASDFLSPEAASPAPNPDWLSAAALHFAIQQVREENIRKQLKKLDCEREELLVFLFFFSLMGLLSSHLTSNSTTDLPKAFHVCAAILECLEKRKISWLALFQLTESDLRLGRLLLRVAPDQHTRLLPFAFYSLLSYFHEDAAIREEAFLHVAVDMYLKLVQLFVAGDTSTVSPPAGRSLELKGQGNPVELITKARLFLLQLIPRCPKKSFSHVAELLADRGDCDPEVSAALQSRQQAAPDADLSQEPHLF [FANCA]”, in the data set on HeLa Kyoto [1], the “solubility in G1/S (log2)” value was -0.182. Also, the melting temperature with HeLa Kyoto [2] (cell cycle stage: G1/S) was found to be 47.9 °C; with HeLa Kyoto [2] (cell cycle stage: mitosis) it was 48.3 °C. Moreover, the “solubility change mitosis (log2)” value with HeLa Kyoto [3] stood at 0.00288. In addition, the thermal stability score in the data set with HeLa Kyoto [4] (setting [5]) turned out to be 0.523; in the data set on HeLa Kyoto [4] (cell cycle stage: mitosis), 1.07.
As for “MSDVEENNFEGRESRSQSKSPTGTPARVKSESRSGSRSPSRVSKHSESHSRSRSKSRSRSRRHSHRRYTRSRSHSHSHRRRSRSRSYTPEYRRRRSRSHSPMSNRRRHTGSRANPDPNTCLGVFGLSLYTTERDLREVFSRYGPLSGVNVVYDQRTGRSRGFAFVYFERIDDSKEAMERANGMELDGRRIRVDYSITKRAHTPTPGIYMGRPTHSGGGGGGGGGGGGGGGGRRRDSYYDRGYDRGYDRYEDYDYRYRRRSPSPYYSRYRSRSRSRSYSPRRY [TRA2A]”, the “solubility in G1/S (log2)” value with HeLa Kyoto [1] was -1.11. Also, the results for the melting temperature with HeLa Kyoto [2] (cell cycle stage: G1/S) and with HeLa Kyoto [2] (cell cycle stage: mitosis) were 49.1 °C and 49.5 °C, respectively. For the same sequence, the “solubility change mitosis (log2)” value in the data set on HeLa Kyoto [3] was determined as 0.522. For the same sequence, the thermal stability score with HeLa Kyoto [4] (setting [5]) was found to be 1.2; in the data set with HeLa Kyoto [4] (cell cycle stage: mitosis), 1.92.
